Reference: the supplement of paper PMC10724198
± gives the standard deviation of the averaged measurements.

Tested on: Saccharomyces cerevisiae
Experiment: protein stability index of tFT-peptide fusion (C-terminal peptide) (PSI (0-1 scale)); higher = more stable (slower turnover)
Details: genetic background: wild type; temperature: 30 C
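Further: PSI is a weighted mean of sequencing reads over stability bins, variants kept only with over 10 reads, mCherry proximal and sfGFP distal, peptide attached via GGGS linker.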

Row | Sequence | protein stability index
1 | SHHSVNWKPQGL | 0.668 ± 0.025
2 | SHIAIEKLHSKN | 0.709 ± 0.056
3 | SHPTLCSFSPPA | 0.686 ± 0.035
4 | SHRRSMTNNKAK | 0.705 ± 0.01
5 | SIFVNICRRMKC | 0.616 ± 0.014
6 | SIIIRVTQSGSG | 0.6414 ± 0.0056
7 | SIIRDKERNNYK | 0.654 ± 0.015
8 | SIISRVLDAMAK | 0.724 ± 0.21
9 | SILQINRDNVMR | 0.742 ± 0.02
10 | SILWRCEEEIRR | 0.736 ± 0.029
11 | SINPRVYFVDCQ | 0.689 ± 0.034
12 | SIPSPLVPPLTR | 0.72 ± 0.04
13 | SIPVHGPCNRVV | 0.671 ± 0.025
14 | SIRTKVVRNVVS | 0.625 ± 0.087
15 | SKKNKNIQKHLY | 0.728 ± 0.011
16 | SKKSKTQSNKNQ | 0.683 ± 0.02
17 | SKPTQQNRRPDG | 0.596 ± 0.028
18 | SKQNNIEMKKYK | 0.741 ± 0.036
19 | SKTQRAQSGNSA | 0.699 ± 0.054
20 | SLAGLLPCRLTP | 0.621 ± 0.023
21 | SLAGWPPPSIST | 0.686 ± 0.013
22 | SLAPLPLIVLFL | 0.487 ± 0.023
23 | SLCCPLHQTRFR | 0.684 ± 0.046

Row | Sequence | protein stability index
24 | SLDLALLSPFFG | 0.679 ± 0.029
25 | SLENRFGGFYVG | 0.749 ± 0.066
26 | SLEWGGGRRWPI | 0.719 ± 0.023
27 | SLFPPPLLLSAS | 0.574 ± 0.0095
28 | SLFSFLPRLYSH | 0.627 ± 0.023
29 | SLFSVLSPPYPS | 0.653 ± 0.032
30 | SLGAHHAAFRVV | 0.63 ± 0.044
31 | SLGGCVMCGTTL | 0.708 ± 0.029
32 | SLGGLVSGPGLV | 0.687 ± 0.032
33 | SLGGRVAGGWRD | 0.645 ± 0.1
34 | SLGLALSLRSSV | 0.6361 ± 0.0054
35 | SLGLHADLLSRT | 0.672 ± 0.064
36 | SLGNTRRTKKSI | 0.636 ± 0.054
37 | SLGRYVDCLLGC | 0.6463 ± 0.0044
38 | SLGVVSHGASRP | 0.693 ± 0.027
39 | SLHPPPPPFRLS | 0.753 ± 0.014
40 | SLHSTPRPPAPG | 0.705 ± 0.063
41 | SLILRHLSPPTP | 0.762 ± 0.15
42 | SLIPLRLTLTRH | 0.739 ± 0.023
43 | SLKRRWPYPNRP | 0.681 ± 0.011
44 | SLLLMLPFPLPG | 0.618 ± 0.028
45 | SLLLPPRPPSPS | 0.672 ± 0.017
46 | SLLLPTPPPFRP | 0.644 ± 0.028

Row | Sequence | protein stability index
47 | SLLLSRPLSTSH | 0.6945 ± 0.0031
48 | SLLTSSPLPSPP | 0.696 ± 0.043
49 | SLPAFPPNTFMP | 0.7 ± 0.017
50 | SLPGVRVPRVGR | 0.715 ± 0.059
51 | SLPHSFIYYPLP | 0.755 ± 0.037
52 | SLPLPSPRPILR | 0.64 ± 0.0092
53 | SLPLVLHGHRLY | 0.672 ± 0.027
54 | SLPPAHPPPPRP | 0.693 ± 0.026
55 | SLPPFPVTSRHP | 0.691 ± 0.011
56 | SLPPSSPLPPVS | 0.665 ± 0.035
57 | SLPRPPPPASTP | 0.623 ± 0.0068
58 | SLPSPSPPSHPL | 0.705 ± 0.033
59 | SLPSSVAFLFPR | 0.802 ± 0.17
60 | SLQTRANTGLWT | 0.689 ± 0.034
61 | SLREIIRKSLGL | 0.677 ± 0.022
62 | SLRILFDLRISL | 0.605 ± 0.031
63 | SLRLFSPILSSL | 0.684 ± 0.011
64 | SLRSSLFSPHHC | 0.649 ± 0.044
65 | SLRSSRSRIKKG | 0.624 ± 0.086
66 | SLRWVHVRGVLQ | 0.702 ± 0.013
67 | SLSDYKAYSKTI | 0.65 ± 0.013
68 | SLSGPDIRLKPF | 0.673 ± 0.046
69 | SLSGPRCFLHSP | 0.681 ± 0.039

Row | Sequence | protein stability index
70 | SLVLPPRPFPPF | 0.746 ± 0.058
71 | SLVLPSFSLFSR | 0.728 ± 0.028
72 | SLVLSFPLLSLP | 0.697 ± 0.025
73 | SLYPPPAPRASP | 0.773 ± 0.036
74 | SLYVRRCKEASK | 0.6894 ± 0.0023
75 | SMSRSPPPSPPL | 0.669 ± 0.01
76 | SMWKQIRVYGLW | 0.636 ± 0.028
77 | SNHIAPAFKIKQ | 0.678 ± 0.0085
78 | SNHTIIGNVVHF | 0.7131 ± 0.0056
79 | SNHYYFILSHFA | 0.661 ± 0.0093
80 | SNPLRPHLPPHF | 0.714 ± 0.054
81 | SNTKLIGGFFRD | 0.646 ± 0.1
82 | SPALSPDPSPSP | 0.704 ± 0.037
83 | SPALVRLSLPRP | 0.86 ± 0.14
84 | SPAPPPGVPPSR | 0.687 ± 0.03
85 | SPDCSLSPSVSG | 0.684 ± 0.029
86 | SPFCGVRFRFCY | 0.632 ± 0.064
87 | SPFGFPPPSPPA | 0.6843 ± 0.003
88 | SPFPLSSLRPLP | 0.7552 ± 0.0022
89 | SPGPSPPSPIGP | 0.61967 ± 0.00044
90 | SPGTFLSLRMSI | 0.703 ± 0.015
91 | SPHLPPLPDPSP | 0.576 ± 0.0069
92 | SPISATISPSFR | 0.728 ± 0.018

Row | Sequence | protein stability index
93 | SPIVLTYHYLCR | 0.666 ± 0.0087
94 | SPLGPLGPPSET | 0.693 ± 0.052
95 | SPLLYPPPSTSI | 0.715 ± 0.042
96 | SPLPLFSPCPPP | 0.693 ± 0.014
97 | SPLPPPSLPRPP | 0.641 ± 0.017
98 | SPLRHLPGPSFP | 0.696 ± 0.012
99 | SPLSLPTRSCLL | 0.7075 ± 0.0066
100 | SPLTSSSLPPRT | 0.691 ± 0.032
101 | SPPAPACTSYSL | 0.7018 ± 0.0019
102 | SPPATPWPPDLR | 0.627 ± 0.051
103 | SPPFLPCLFHAS | 0.687 ± 0.048
104 | SPPFLPVPASSL | 0.709 ± 0.027
105 | SPPGYPGNPSPL | 0.662 ± 0.021
106 | SPPHSLSSSCSL | 0.811 ± 0.05
107 | SPPLFCSPPISP | 0.719 ± 0.043
108 | SPPLHPPPPFPL | 0.769 ± 0.047
109 | SPPLPACSPPLA | 0.715 ± 0.035
110 | SPPLPHLPTPTP | 0.603 ± 0.14
111 | SPPLPPLPSVAF | 0.637 ± 0.16
112 | SPPLPPPARLPA | 0.615 ± 0.019
113 | SPPLPRLSPLPN | 0.6863 ± 0.0012
114 | SPPPAPSHPPSP | 0.73 ± 0.05
115 | SPPPGSRTFAFR | 0.697 ± 0.042

Row | Sequence | protein stability index
116 | SPPPIVPPPSPP | 0.662 ± 0.12
117 | SPPPLCCPPLAP | 0.728 ± 0.023
118 | SPPPLLLPLSPP | 0.727 ± 0.047
119 | SPPPLNTFPPLP | 0.691 ± 0.025
120 | SPPPLRFPPPPP | 0.763 ± 0.13
121 | SPPPNPPRPSSR | 0.768 ± 0.014
122 | SPPPPASPPAPP | 0.648 ± 0.062
123 | SPPPPHVPLSPS | 0.712 ± 0.032
124 | SPPPPPALPEYQ | 0.6877 ± 0.0012
125 | SPPPPPPPPPPL | 0.757 ± 0.041
126 | SPPPPPPRPLTP | 0.672 ± 0.027
127 | SPPPPSPRFPSP | 0.678 ± 0.017
128 | SPPPPTPLPPPP | 0.6757 ± 0.0047
129 | SPPPPVPSAGPL | 0.7 ± 0.042
130 | SPPPSPPPPLPP | 0.5649 ± 0.0049
131 | SPPRHPPPASPA | 0.7128 ± 0.0035
132 | SPPSPSTPPARP | 0.747 ± 0.15
133 | SPPSSPHPPPRT | 0.693 ± 0.01
134 | SPPVPLPYLASP | 0.663 ± 0.061
135 | SPQPSLPFLPPL | 0.668 ± 0.026
136 | SPRPHRHLPFRP | 0.709 ± 0.0072
137 | SPRPIKCRPLLI | 0.62 ± 0.018
138 | SPRPPPLIIAST | 0.664 ± 0.031

Row | Sequence | protein stability index
139 | SPRPPSLPYAPP | 0.701 ± 0.019
140 | SPRPTRCGQNSM | 0.6897 ± 0.0053
141 | SPRPYFSLVLFF | 0.539 ± 0.0032
142 | SPRRSLPPAGFT | 0.71 ± 0.017
143 | SPRVRVYLTDTG | 0.7306 ± 0.0042
144 | SPSCFFIFALPC | 0.605 ± 0.037
145 | SPSCSLLCPLPR | 0.72 ± 0.028
146 | SPSIRFILWGPI | 0.678 ± 0.041
147 | SPSLSPSPPSPS | 0.6699 ± 0.0039
148 | SPSPLPTTPPTC | 0.641 ± 0.0077
149 | SPSPPHPLTTTL | 0.711 ± 0.075
150 | SPSPPLASPPPL | 0.686 ± 0.016
151 | SPSRPTPNTIGP | 0.615 ± 0.031
152 | SPSSFVTFVVLE | 0.652 ± 0.098
153 | SPSSPPPPPPPA | 0.833 ± 0.033
154 | SPSTRWPTVQTR | 0.662 ± 0.0098
155 | SPTAPPPRPFPP | 0.679 ± 0.042
156 | SPTPPRMPLSLP | 0.677 ± 0.024
157 | SPTRFLPVPTPF | 0.75 ± 0.052
158 | SPTSTILKSYTR | 0.659 ± 0.086
159 | SPVPRPGTTRRP | 0.721 ± 0.031
160 | SPVQHPKHIQPG | 0.656 ± 0.008
